Data reported in publication PMC12382605, “Dominant negative ADA2 mutations cause ADA2 deficiency in heterozygous carriers” (The Journal of Experimental Medicine, 2025).
Substitutions are numbered along the chain they refer to. Names and notes keep the numbering of the source.

B1: ADA2 variant G47A, myc-FLAG-tagged (pCMV6) (enzyme, human, UniProt Q9NZK5-1 30-511, looked up)
chain: IDETRAHLLLKEKMMRLAGRLVLNTKEELANERLMTLKIAEMKEAMRTLIFPPSMHFFQAKHLIERSQVFNILRMMPKGAALHLHDIGIVTMDWLVRNVTYRPHCHICFTPRGIMQFRFAHPTPRPSEKCSKWILLEDYRKRVQNVTEFDDSLLRNFTLVTQHPEVIYTNQNVVWSKFETIFFTISGLIHYAPVFRDYVFRSMQEFYEDNVLYMEIRARLLPVYELSGEHHDEEWSVKTYQEVAQKFVETHPEFIGIKIIYSDHRSKDVAVIAESIRMAMGLRIKFPTVVAGFDLVGHEDTGHSLHDYKEALMIPAKDGVKLPYFFHAGETDWQGTSIDRNILDALMLNTTRIGHGFALSKHPAVRTYSWKKDIPIEVCPISNQVLKLVSDLRNHPVATLMATGHPMVISSDDPAMFGAKGLSYDFYEVFMGIGGMKADLRTLKQLAMNSIKYSTLLESEKNTFMEIWKKRWDKFIADVATK
notes: adenosine deaminase 2 (ADA2), human; site-directed mutant of the WT clone of transcript 3, NM_001282225 (OriGene RC238645); Pathogenic variant that occurs in patients; also called p.G47A; source: HEK293T, transfected; in supernatant and whole-cell lysate
B2: ADA2 variant G47R, myc-FLAG-tagged (pCMV6) (enzyme, human, UniProt Q9NZK5-1 30-511, looked up)
chain: B1 chain with A18R
notes: adenosine deaminase 2 (ADA2), human; site-directed mutant of the WT clone of transcript 3, NM_001282225 (OriGene RC238645); Patient variant; also called p.G47R; source: HEK293T, transfected; in supernatant and whole-cell lysate
B3: ADA2 variant G47V, myc-FLAG-tagged (pCMV6) (enzyme, human, UniProt Q9NZK5-1 30-511, looked up)
chain: B1 chain with A18V
B4: ADA2 variant E328K, myc-FLAG-tagged (pCMV6) (enzyme, human, UniProt Q9NZK5-1 30-511, looked up)
chain: B1 chain with A18G, E299K
B5: ADA2 variant R169Q, myc-FLAG-tagged (pCMV6) (enzyme, human, UniProt Q9NZK5-1 30-511, looked up)
chain: B1 chain with A18G, R140Q
B6: ADA2 variant Y453C, myc-FLAG-tagged (pCMV6) (enzyme, human, UniProt Q9NZK5-1 30-511, looked up)
chain: B1 chain with A18G, Y424C
B7: ADA2 variant G47W, myc-FLAG-tagged (pCMV6) (enzyme, human, UniProt Q9NZK5-1 30-511, looked up)
chain: B1 chain with A18W
notes: adenosine deaminase 2 (ADA2), human; site-directed mutant of the WT clone of transcript 3, NM_001282225 (OriGene RC238645); Pathogenic variant that occurs in patients; source: HEK293T, transfected, in supernatant

Tests used:
[1] = target: T1, human WT ADA2, myc-FLAG-tagged (pCMV6) (human, UniProt Q9NZK5-1 30-511); test: cell-based or functional assay
T1 sequence (looked up): B1 chain with A18G

[2] = target: the molecule itself; test: native gel or EMSA; supernatant of HEK293T transfected with one ADA2 construct (homozygous condition), collected after 48 h; NativePAGE 4-16% Bis-Tris, western blot with anti-ADA2; dimer band quantified relative to WT100%

Binder | adenosine deaminase activity of whole-cell lysate and supernatant of HEK293T cotransfected with WT and variant ADA2 (heterozygous), relative to WT50% [1] | residual dimer in the supernatant (% of WT100%) [2] | adenosine deaminase activity of the supernatant of HEK293T cotransfected with WT and variant ADA2 (heterozygous), relative to WT50% [1]
B1 | < 75 % of WT50% | ~48 % of WT100% | –
B2 | < 75 % of WT50% | ~53 % of WT100% | –
B3 | – | – | 58 % of WT50%
B4 | < 75 % of WT50% | – | –
B5 | – | – | 23 % of WT50%
B6 | 41 % of WT50% | – | –
B7 | – | ~9 % of WT100% | –
